Test results: publication PMC2682205, “Cdc7p-Dbf4p Regulates Mitotic Exit by Inhibiting Polo Kinase” (PLoS Genetics, 2009)

Biological target: T1, GST-PoloPBD (Polo amino acids 357–705) (budding yeast (S. cerevisiae), UniProt P32562 357-705)
T1 construct: Cdc5p (Polo), budding yeast; amino acids 357-705 with the polo-box domain; Cloned into pGEX-KG; also called GST-PBD; source: E. coli BL21, purified (glutathione-agarose, dialysis)
T1 sequence (looked up): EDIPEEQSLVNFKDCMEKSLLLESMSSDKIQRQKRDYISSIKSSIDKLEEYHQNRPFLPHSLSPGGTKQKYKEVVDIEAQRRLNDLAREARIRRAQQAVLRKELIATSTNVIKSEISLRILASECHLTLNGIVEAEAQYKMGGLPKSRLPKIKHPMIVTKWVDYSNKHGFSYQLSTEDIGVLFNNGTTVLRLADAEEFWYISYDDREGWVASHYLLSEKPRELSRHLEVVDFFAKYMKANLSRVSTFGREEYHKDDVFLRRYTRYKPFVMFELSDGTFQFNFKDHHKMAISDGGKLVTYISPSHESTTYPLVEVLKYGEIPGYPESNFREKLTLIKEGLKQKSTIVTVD
Assay: pull-down; GST or GST-PBD with Sumo or Sumo-Dbf4p on glutathione-agarose, 20 mM Tris-HCl pH 7.0, 300 mM NaCl, 0.5% NP-40, 1 mM EGTA, 1 hour at 4°C; blots with anti-GST-Polo PBD and anti-Smt3p
Conditions: both partners purified

binding result: binds
B1: Sumo-Dbf4p_(67–109) (domain or fragment, budding yeast (S. cerevisiae), UniProt P32325 66-109, looked up)
chain: QQQQHLHEKKRARIERARSIEGAVQVSKGTGLKNVEPRVTPKEL
notes: Dbf4p, budding yeast; Cloned into pSUMO (LifeSensors Inc.); also called Dbf4p PIR; source: E. coli BL21, purified (Ni++ column, imidazole gradient)
